Experimental data from a protein production outcome set (Wang et al. 2014).

assay: label from the status in PepcDB records

| Sequence | protein production |
| --- | --- |
| RFRVTPYHGNLLGDHERLAAFREAISSRARGLTYDLGAGSGILSFFASEYADRVIAIERDPKIAACAGENLSGLDNVSVVNEDALHYEFSAADTIICEMLDTALIDEEQVPVLRRALKFLRNDGTVIPQAVF | failed |
| RGIAVYVEHHNGNIHPVTYELIGKAREMASKIKQPVYCVFVGKDIKDKCSNLISYGVDEVFVYDEDEFKDFRIEPYSKAIENFIDKIKPTIVLVGGTTLGRSLAPRLAARFRTGLTADCTILDIQSNTDLDQIRPAFGGNIMAHINTPNNRPQFATVRYKIFSAPEKIENTTGKITLCKVEKKELKSKIKVLSVKEKNKEVG | failed |
| RGLALCREHYLDWFVKETERAIRRHRMLLPGERVLVAVSGGKDSLALWDVLSRLGYQAVGLHIELGIGEYSKRSLEVTQAFARERGLELLVVDLKEAYGFGVPELARLSGRVACSACGLSKRYIINQVAVEEGFRVVATGHNLDDEAAVLFGNLLNPQEETLSRQGPVLPEKPGLAARVKPFYRFSEREVLSYTLLRGIRYLHEEC | failed |
| RIVSTLNERLAGLTLHEIRDTYEERLDDLPDETGLIALVLDEASILFSEPDEGRLQFDGTQNILSQPEFQEPDDMRHLIETIEDEDRIVQVIENLFEANPDAVGQAVVRIGSETDQEEMDAYSIVLSPYQLGDTVGSLGVIGPKRMDYGRAVALVENMAAVVNRPADDETTD | failed |
| RKEDHARLRALNGLLYKALTDLLCTPEVSQELYDLNVELSKVSLTPDFSACRAYWKTTLSAEQNAHMEAVLQRSAAHMRHLLMSQQTLRNVPPIVFVQDKGNAALAELDQLLAVAD | not failed |
| RKTEKVVNNGIPWFDDRGEIVNAHGACIVEENGRYYLFGEYKSDKSNAFPGFSCYSSDDLVNWKFERVVLPMQSSGILGPDRVGERVKVMKCPSTGEYVMYMHADDMNYKDPHIGYATCSTIAGEYKLHGPLLYEGKPIRRWDMGTYQDTDGTGYLLLHGGIVYRLSKDYRTAEEKVVSGVGGSHGESPAMFKKDGTYFFLFSNLTSWEKNDNFYFTAPSVKGPWTRQGLFAPEGSLTYNSQTTFVFPLKCGEDTIPMFMGDRWSYPHQASAATYVWMPMQVDGTKLSIPEYWPSWDVDKLKPVNPLRKGKTVDLKKITFSKEADWKVEEGRISSNVKGSTLSIPFTGSCVAVMGETNCHSGYARMNILDKKGEKIYSSLVDFYSKANDHATRFKTPQLAEGEYTLVIEVTGISPTWTDKTKRIYGSDDCFVTITDIVKL | not failed |
| RNRFKWGPASQQILYQAYDRQKNPSKEEREALVEECNRAECLQRGVSPSKAHGLGSNLVTEVRVYNWFANRRKEEAFRQKLAMDAYSSN | not failed |
| RPKTGFQMWLEENRSNILSDNPDFSDEADIIKEGMIRFRVLSTEERKVWANKAKGETASEGTEAKKRK | not failed |
| RQKLLADFGEFALSNDNLADILTEACRLVGNALGTQRANVLEIEPSKRSLFVRAGVGLDDGIVGKLRLPMREIASERFSPDGSPLDIIHDVHTEPQYDLAAFMEVAGVVALVNVPILLPGRTLYGLLQVESSEPREFSQDDVEFLRTYSTILGPVIDRLNKVRALRDAEERFRLIVEAAR | failed |
| RQQSMAERHDYDQKEEKTDGGELVSSYMCSPETAAEEFEISKKLYAQLTGRSQSEKHDIIMYRIIQSFKPDEVSPEEAHKIGCELAMKFTGGQHQFVVATHTDKRHIHTHIEFNSTNLNCDAKFQNVKNSAFILRRMNDELCRAHGLSVIENPKKKARPQKEMAAAQYGVSHKKQLQQAIDRLLPECNHYEEFLAKMRAEGYEVVDGKNPGFRLPGWDRPTRVNRLG | not failed |
| RRRAPLARLRQAIQRCEFFVCYQPIVSLSDGRCVGAEALVRWRQQDGTLILPDQFIPLAERSGLILPITDQVIAASMRELGPLLVADRSLHIAINVSVKDIESGRLLDVLALALQDTGLYRKQLWIEATERSFMDARAAREHIVRLREAGYAVVIDDFGTGYSNLQYLQQLPLDALKIDKSFIDTVGRDVTNTAVASHIIDIAKELGMRTIAEGVEREEQLVYLRARGVDMAQGWLFSSPLSVAEFVDYLSHNRSMHPDD | failed |
| RSPPSNLALASETPDSLQVSWTPPLGRVLHYWLTYAPASGLGPEKSVSVPGARSHVTLPDLQAATKYRVLVSAIYAAGRSEAVSATGQTACP | not failed |
| RTAVMIMNGNQLVGFFCLHVGQGPLSYGETEVNTILLRALSVDDRFKHQRVASDALAELPRYLASHYPMIQTILLAVNHANHVAQHLY | failed |
| RTDVIVVGVLDWKKGNLSFVSIPRDLMIEGKKINAIYNTYGMEKLFQIIESLLGQKPDSYVIFNYEAFKILVDELGPIEVIPNEVMFYEDLSQNLVIDFKPGVPYKLNGEQLLAYIRYRKDSMGDLARIERQKDVLKKLLSKALS | failed |
| RTEAGDAYYSKFANNTPLPALMVSRKKFGSSYVYDKSYKTWDVPIAEQMEQKAKINIFAVAEYTDTQKIKVTVKGKILEGNTLPKSMVQVYLLEDKLIAPQVDGNTTVENYEHNHVLRGAVNGIWGEEFVNLKDYLYTYAVEPLSGMSFVAENYSIVAFVYDVQTFEVYDVVHVKINPQSDGK | not failed |
| RTFAVAAVAALVLPLSACGSGGDGGSSTDASGKVEGDITFQTWNLRANFKDYFEGLIADFEKKYPDTHVKWVDQPGEGYADKISADAAGGTLPDVVNVSPDLVAPLAKAGLALDLDKAAGQYEKEYLEGAWASHRIPGMDGTYAFPWYLNTGPLFYNKSLFEKAGLDPEQPPRTYDEVFDAALKIADKTDGEVATLANVPTIEDFGRYGVPLMNKEGTAFAFNDAKGVQLLARYKELYDAKALDPQALTATPESSGKKFLTGAVAMNPGSALDLANFKKQAPNLYENIGITDQITSTGHVNMYVMGLMVNAQSQRKPAAVAFAHYVTDAAHQMSFAKQVAIFPSTAGSLDDPYFTKEDGTDETRVRVAAAKSLKTAVNYTPVLFSEQMKTELRNEVAKALQGKQSPKEALDNAVKACDRLLQ | failed |
| RTKDQYYELRDFALGTSVRIVVSSQKINPRTIAEAILEDMKRITYKFSFTDERSVVKKINDHPNEWVEVDEETYSLIKAACAFAELTDGAFDPTVGRLLELWGFTGNYENLRVPSREEIEEALKHTGYKNVLFDDKNMRVMVKNGVKIDLGGIAKGYALDRARQIALSFDENATGFVEAGGDVRIIGPKFGKYPWVIGVKDPRGDDVIDYIYLKSGAVATSGDYERYFVVDGVRYHHILDPSTGYPARGVWSVTIIAEDATTADALSTAGFVMAGKDWRKVVLDFPNMGAHLLIVLEGGAIERSETFKLFERE | not failed |
| RVLEFHPLGSGLAMTEFVVGSRLMGKTLSDLALCKVEGVQVLGFKRGPEIIKAPDMSTTLEIGDLIIVVGPQDKLANKLKSL | failed |
| RYSDAHLHYVDFFQESEGMPALIKAMDAAGVEQSMISGIPVAKKWHEDEPKRPRYYAGDDADAYWYSATDTYVAAALQQLPSDQRKRFHPFLSGFNPVDKNAVSHIERMLDLYPGLWQGIGEVFTRHDDLTALTSGDTPRANNEAMTRIYHLAAERDLPVLLHSNITSKRERNPLYLAEIEEPLRNHPHTRFIWAHAGSSMEIHRHQKQMDFLLPVLTRLLEDYPNLYVDLSWSVLQPYLLDEQGAPRKEWLALVEKYPERFMLGSDVVGRFGSLGEQMHGFKPFLDALPESVAHKVARENFLAVLPKAR | failed |
| SAELGLNEHHQNEVINYMRFARSKRGLRLKTVDSCFQDLKESRLVEDTFTIDEVSEVLNGLQAVVHSEVESELINTAYTNVLLLRQLFAQAEKWYLKLQTDISELENRELLEQVAEFEKAEITSSNKKPILDVTKPKLAPLNEGGTAELLNKEILRLQEENEKLKSRLKTIEIQATNALDEKSKLEKALQDLQLDQGNQKDFIKAQDLSNLENTVAALKSEFQKTLNDKTENQKSLEENLATAKHDLLRVQEQLHMAEKELEKKFQQTAAYRNMKEILTKKNDQIKDLRKRLAQYEPED | not failed |
| SAGTGVVAVYGEGAMTETKQKSPFSVKVGLAQMLRGGVIMDVVNAEQARIAEEAGACAVMALERVPADIRAQGGVARMSDPEMIKEIKNAVTIPVMAKARIGHFVEAQILEAIGVDYVDESEVLTLADEDNHINKHNFKIPFVCGCRNLGEALRRIREGAAMIRTKGEAGTGNVVEAVRHVRSVNGAIRLLRSMDDDEVFTYAKKIAAPYDLVVQTKELGRLPVVQFAAGGVATPADAALMMQLGCDGVFVGSGVFKSGDPVKRAKAIVQAVTNYRDAAVLAEVSCGLGEAMVGLNLDDKVERFASRSE | not failed |
| SATHGQTCARPMCIPPSYADLGKAARDIFNKGFGFGLVKLDVKTKSCSGVEFSTSGSSNTDTGKVTGTLETKYKWCEYGLTFTEKWNTDNTLGTEIAIEDQICQGLKLTFDTTFSPNTGKKSGKIKSSYKRECINLGCDVDFDFAGPAIHGSAVFGYEGWLAGYQMTFDSAKSKLTRNNFAVGYRTGDFQLHTNVNDGTEFGGSIYQKVCEDLDTSVNLAWTSGTNCTRFGIAAKYQLDPTASISAKVNNSSLIGVGYTQTLRPGVKLTLSALVDGKSINAGGHKVGLALELEA | not failed |
| SAVLVALSLAGLPTDRFFFDGFLPSKQGARRARLGELAAIDATLVLFEAGSRIQNSVHDLADLLGATREAAICRELTKLHQEVRRATLAELAAQADTMETRGEFVVVIAP | failed |
| SDDINQKVAEQLAQKAQSSSLGYDIVESLTVEVGPRLAGSEQDKVAVDWAIAKLQSLGFDRVYKEPVTVPVWRRGIAKASILSPFPQPLVVTALGGSIATPAQGLSATIVRFDTLQDLQNAEAGSLNDKIAFIDAKTERHRDGKGYGQTASGRSRGAVAAAEKGAVGIIIRSIGTDHDRMAHTGMMRYEEGVTAIPAAAISNPDADLINAMLKRDKEVVISLELGSERRGETTSYNVIAEVKGSTKADEIVLIGAHLDSWDEGTGAIDDGAGVAIVTAAAKHILDLPQKPERTIRVVLYAAEELGLLGGKTYAKEHEAELEKHYIAAESDFGAGPIYQIDWRVADTAHSPVINAMKVAEPLGVAAGNNKASGGPDVSMLPALGVPVASLRQDGSDYFDYHHTPNDTLDKINPEALAQNVAVYAQFAWVMANSKVELRPLPPKE | not failed |
| SDMVAQALELSRKPHVVIATPGRLADHLRSSNTFSIKKIRFLVMDEADRLLEQGCTDFTVDLEAILAAVPARRQTLLFSATLTDTLRELQGLATNQPFFWEAQAPVSTVEQLDQRYLLVPEKVKDAYLVHLIQRFQDEHEDWSIIIFTNTCKTCQILCMMLRKFSFPTVALHSMMKQKERFAALAKFKSSIYRILIATDVASRGADQPPLPPGAWTSLRYRWSSTTTPPGSPRSTSTESAGRPVQGGRVRPSRW | not failed |
| SDPDADRVGIACKNDKGEWVLINGNQTCLMYLYYIITQYNKLGKMTGNEFCVKTIVTTELIKKIADKNHIEMLDCYTGFKWIAREIRLREGKKKYIGGGEESYGFLAEDFVRDKDAVSACCLIAEVAAWAKDNGKTLYQLLMDIYVEYGFSKE | failed |
| SDSPEQESADDALKRIVDGFQHFRREVFPEQQALFKKLANSQRPRAMFITCADSRIVPELITQSSPGDLFVTRNVGNVVPPYGQMNGGVSTAIEYAVLALGVHHIIVCGHSDCGAMRAVLDPQTLERMPTVKAWLRHAEVARTVVADNCDCGASHDTLGVLTEENVVAQLDHLRTHPSVASRLASGQLFIHGWVYDIESAQIRAYDAKQGRFLPLDGEHPVPMATPAPRYLSS | failed |
| SEITVSEFLLDFLNKYSENISLATYNNYVSICKNYINPSIGKYKIQDLHPVHIQNYIDKLSYKLNPQSIKIHINILKLAIKRAYRLKLIKENVMDSIKAP | failed |
